In article doi:10.1101/2025.10.01.679551, “Mechanism of phosphoinositide regulation of lysosomal pH via inhibition of CLC-7” (bioRxiv, 2025):
Positions count from the first letter of the chain named. Names and notes keep the numbering of the source.

B1: human ClC-7 (wild type), C-terminal 6His-tag (natural protein)
chain: MANVSKKVSWSGRDRDDEEAAPLLRRTARPGGGTPLLNGAGPGAARQSPRSALFRVGHMSSVELDDELLDPDMDPPHPFPKEIPHNEKLLSLKYESLDYDNSENQLFLEEERRINHTAFRTVEIKRWVICALIGILTGLVACFIDIVVENLAGLKYRVIKGNIDKFTEKGGLSFSLLLWATLNAAFVLVGSVIVAFIEPVAAGSGIPQIKCFLNGVKIPHVVRLKTLVIKVSGVILSVVGGLAVGKEGPMIHSGSVIAAGISQGRSTSLKRDFKIFEYFRRDTEKRDFVSAGAAAGVSAAFGAPVGGVLFSLEEGASFWNQFLTWRIFFASMISTFTLNFVLSIYHGNMWDLSSPGLINFGRFDSEKMAYTIHEIPVFIAMGVVGGVLGAVFNALNYWLTMFRIRYIHRPCLQVIEAVLVAAVTATVAFVLIYSSRDCQPLQGGSMSYPLQLFCADGEYNSMAAAFFNTPEKSVVSLFHDPPGSYNPLTLGLFTLVYFFLACWTYGLTVSAGVFIPSLLIGAAWGRLFGISLSYLTGAAIWADPGKYALMGAAAQLGGIVRMTLSLTVIMMEATSNVTYGFPIMLVLMTAKIVGDVFIEGLYDMHIQLQSVPFLHWEAPVTSHSLTAREVMSTPVTCLRRREKVGVIVDVLSDTASNHNGFPVVEHADDTQPARLQGLILRSQLIVLLKHKVFVERSNLGLVQRRLRLKDFRDAYPRFPPIQSIHVSQDERECTMDLSEFMNPSPYTVPQEASLPRVFKLFRALGLRHLVVVDNRNQVVGLVTRKDLARYRLGKRGLEELSLAQT
notes: ClC-7 Cl-/H+ antiporter, Homo sapiens, synthesised gene in pLexM; Homodimer; each subunit carries one Ostm1; The cytoplasmic domain is not resolved in the structure without lipid (9G6D); also called wtCLC7; WT-CLC7; source: HEK293F (Freestyle 293F), co-transfected with OSTM1-Flag
B2: human ClC-7 Y715C, C-terminal 6His-tag (natural protein)
chain: B1 chain with Y715C
notes: ClC-7 Cl-/H+ antiporter, Homo sapiens, synthesised gene in pLexM with the patient gain-of-function mutation Y715C; Y715C is a mutation found in human patients; The cytoplasmic domain is not resolved in 9G6E; also called CLC7Y715C-His; source: HEK293F (Freestyle 293F), co-transfected with OSTM1-Flag
B3: human Ostm1, C-terminal Flag-tag (natural protein)
chain: ALPFGSSPHRVFHDLLSEQQLLEVEDLSLSLLQGGGLGPLSLPPDLPDLDPECRELLLDFANSSAELTGCLVRSARPVRLCQTCYPLFQQVVSKMDNISRAAGNTSESQSCARSLLMADRMQIVVILSEFFNTTWQEANCANCLTNNSEELSNSTVYFLNLFNHTLTCFEHNLQGNAHSLLQTKNYSEVCKNCREAYKTLSSLYSEMQKMNELENKAEPGTHLCIDVEDAMNITRKLWSRTFNCSVPCSDTVPVIAVSVFILFLPVVFYLSSFLHSEQKKRKLILPKRLKSSTSFANIQENSN
notes: Ostm1, Homo sapiens, synthesised gene in pLexM; Two copies in the ClC-7/Ostm1 complex, one for each ClC-7 subunit; also called OSTM1-Flag; source: HEK293F (Freestyle 293F), co-transfected with CLC7-His or CLC7Y715C-His; not shown: Flag, C-terminal, kept

Columns and labels:
[1] = target: the molecule itself; assay: cryo-EM structure; ClC-7/Ostm1 complex co-expressed in HEK293F, purified by FLAG affinity and SEC in LMNG/CHS with lipid bought as PI(3,5)P2 added during purification; supplemented with 0.1 % LMNG and 2.5 mM ATP; C2 symmetry
[2] = target: the molecule itself; assay: cryo-EM structure; ClC-7/Ostm1 complex co-expressed in HEK293F, purified by FLAG affinity and SEC in LMNG/CHS, no lipid added (apo); C2 symmetry
[3] = target: B1; assay: as above; conditions: both partners purified
[4] = target: B2; assay: as above; conditions: both partners purified

B1
binding result [1]: binds

B2
binding result [2]: binds

B3
binding result [3]: binds | binding result [4]: binds
